Results from paper PMC3157743, “An Examination by Site-Directed Mutagenesis of Putative Key Residues in the Determination of Coenzyme Specificity in Clostridial NAD^+-Dependent Glutamate Dehydrogenase” (Enzyme Research, 2011).

B1: Clostridium symbiosum NAD^+-specific GDH (CsGDH) ([Clostridium] symbiosum) (protein)
chain: SKYVDRVIAEVEKKYADEPEFVQTVEEVLSSLGPVVDAHPEYEEVALLERMVIPERVIEFRVPWEDDNGKVHVNTGYRVQFNGAIGPYKGGLRFAPSVNLSIMKFLGFEQAFKDSLTTLPMGGAKGGSDFDPNGKSDREVMRFCQAFMTELYRHIGPDIDVPAGDLGVGAREIGYMYGQYRKIVGGFYNGVLTGKARSFGGSLVRPEATGYGSVYYVEAVMKHENDTLVGKTVALAGFGNVAWGAAKKLAELGAKAVTLSGPDGYIYDPEGITTEEKINYMLEMRASGRNKVQDYADKFGVQFFPGEKPWGQKVDIIMPCATQNDVDLEQAKKIVANNVKYYIEVANMPTTNEALRFLMQQPNMVVAPSKAVNAGGVLVSGFEMSQNSERLSWTAEEVDSKLHQVMTDIHDGSAAAAERYGLGYNLVAGANIVGFQKIADAMMAQGIAW
notes: full-length recombinant wild-type gdh in ptac85, expressed in E. coli, purified on Remazol Red Sepharose; no tag mentioned

How the values were obtained:
Experiment in all cases: initial rates, A340 decrease or fluorescence
Assay type in all cases: biochemical, [Clostridium] symbiosum
Conditions in all cases: 20 mM 2-oxoglutarate, 100 mM NH4Cl, 0.1 M potassium phosphate pH 7.0, 25 °C
[1] = system: T1, NC(=O)C1=CN([C@@H]2O[C@H](COP(=O)(O)OP(=O)(O)OC[C@H]3O[C@@H](n4cnc5c(N)ncnc54)[C@H](O)[C@@H]3O)[C@@H](O)[C@H]2O)C=CC1
T1 construct: full-length recombinant wild-type gdh in ptac85, expressed in E. coli, purified on Remazol Red Sepharose; no tag mentioned
Excerpt: (§1) initial rates, A340 decrease or fluorescence on Clostridium symbiosum NAD^+-specific GDH (CsGDH)

[2] = system: T2, NC(=O)C1=CN([C@@H]2O[C@H](COP(=O)(O)OP(=O)(O)OC[C@H]3O[C@@H](n4cnc5c(N)ncnc54)[C@H](OP(=O)(O)O)[C@@H]3O)[C@@H](O)[C@H]2O)C=CC1
T2 construct: full-length recombinant wild-type gdh in ptac85, expressed in E. coli, purified on Remazol Red Sepharose; no tag mentioned
Excerpt: as §1

[3] = substrate: NC(=O)C1=CN([C@@H]2O[C@H](COP(=O)(O)OP(=O)(O)OC[C@H]3O[C@@H](n4cnc5c(N)ncnc54)[C@H](OP(=O)(O)O)[C@@H]3O)[C@@H](O)[C@H]2O)C=CC1
Excerpt: as §1

[4] = substrate: NC(=O)C1=CN([C@@H]2O[C@H](COP(=O)(O)OP(=O)(O)OC[C@H]3O[C@@H](n4cnc5c(N)ncnc54)[C@H](O)[C@@H]3O)[C@@H](O)[C@H]2O)C=CC1
Excerpt: as §1

Molecule | Km [1] | kcat [1] | kcat/Km [1] | Km [2] | kcat [2] | kcat/Km [2] | Km [3] | kcat [3] | kcat/Km [3] | Km [4] | kcat [4] | kcat/Km [4]
Clostridium symbiosum NAD^+-specific GDH (CsGDH) ([Clostridium] symbiosum; A243G) | 25 ± 1 µM | 65.1 ± 1.6 s⁻¹ | 2.6e+06 M⁻¹ s⁻¹ | 386 ± 50 µM | 1.87 ± 0.01 s⁻¹ | 4840 M⁻¹ s⁻¹ | – | – | – | – | – | –
Clostridium symbiosum NAD^+-specific GDH (CsGDH) ([Clostridium] symbiosum; D264K) | 23 ± 2 µM | 80 ± 2.5 s⁻¹ | 3.48e+06 M⁻¹ s⁻¹ | 107 ± 20 µM | 26.3 ± 0.35 s⁻¹ | 246000 M⁻¹ s⁻¹ | – | – | – | – | – | –
Clostridium symbiosum NAD^+-specific GDH (CsGDH) ([Clostridium] symbiosum; F239S) | 40 ± 3 µM | 139 ± 5 s⁻¹ | 3.48e+06 M⁻¹ s⁻¹ | 230 ± 50 µM | 11.1 ± 0.21 s⁻¹ | 48300 M⁻¹ s⁻¹ | – | – | – | – | – | –
Clostridium symbiosum NAD^+-specific GDH (CsGDH) ([Clostridium] symbiosum; F239S/P263S) | 35 ± 10 µM | 105 ± 4 s⁻¹ | 3e+06 M⁻¹ s⁻¹ | 330 ± 20 µM | 83.3 ± 3.5 s⁻¹ | 252000 M⁻¹ s⁻¹ | – | – | – | – | – | –
Clostridium symbiosum NAD^+-specific GDH (CsGDH) ([Clostridium] symbiosum; P263S) | 47 ± 103 µM | 160 ± 8 s⁻¹ | 3.4e+06 M⁻¹ s⁻¹ | 110 ± 10 µM | 62.5 ± 1.6 s⁻¹ | 568000 M⁻¹ s⁻¹ | – | – | – | – | – | –
B1 | – | – | – | – | – | – | 90 ± 11 µM | 2.87 ± 0.11 s⁻¹ | 31900 M⁻¹ s⁻¹ | 20 ± 1 µM | 130.2 ± 3.1 s⁻¹ | 6.5e+06 M⁻¹ s⁻¹
